The subject of data set [1] is M402 (synthetic (M160-nuc with G46D and 3'-5' exo reactivated)). The experiment in a line: cleavage_in_vitro. Conditions: relative to Pfu polymerase, 37 C, 4 mM MgCl2.
In data set [2] the test system is M401 (synthetic (M160-nuc A339E)). The experiment in a line: cleavage_in_vitro. The note with it: relative to Pfu polymerase, 37 C, 4 mM MgCl2.
In data set [3] the test system is M402 (synthetic (M160-nuc with G46D and 3'-5' exo reactivated)). The note with it: vs M160-nuc.
In data set [4] the test system is M403 (synthetic (M160-nuc, both nucleases inactive)). Conditions: vs M160-nuc.
In data set [5] the test system is M401 (synthetic (M160-nuc A339E)). The note with it: vs M160-nuc.
Data set [6] has as its system M160-nuc (synthetic (shuffled viral polymerase fused to Taq 5'-3' nuclease domain)). The note with it: reference.
In data set [7] the test system is M160 (synthetic (shuffled viral Family A DNA polymerase)). The experiment in a line: EMSA. The note with it: 20 mM Tris pH 8.8, 10 mM NaCl, 5 mM MgCl2, 37 C; lacks 5' nuclease domain.
Data set [8] concerns M502 (synthetic (M160-nuc mutant W777C D781A D622N Q627N)). The data set can be described thus: EMSA. Conditions: 20 mM Tris pH 8.8, 10 mM NaCl, 5 mM MgCl2, 37 C; at assay sensitivity limit.
The test system of data set [9] is M160-nuc (synthetic (shuffled viral polymerase fused to Taq 5'-3' nuclease domain)). The data set can be described thus: EMSA. Conditions: 20 mM Tris pH 8.8, 10 mM NaCl, 5 mM MgCl2, 37 C.
Where [10] appears, read: 50 C, substrate taken from general RT assay.
The mark [11] stands for this setting: substrate taken from general polymerase assay.

M401 (synthetic (M160-nuc A339E)), sequence (chain, as listed by the source A339E): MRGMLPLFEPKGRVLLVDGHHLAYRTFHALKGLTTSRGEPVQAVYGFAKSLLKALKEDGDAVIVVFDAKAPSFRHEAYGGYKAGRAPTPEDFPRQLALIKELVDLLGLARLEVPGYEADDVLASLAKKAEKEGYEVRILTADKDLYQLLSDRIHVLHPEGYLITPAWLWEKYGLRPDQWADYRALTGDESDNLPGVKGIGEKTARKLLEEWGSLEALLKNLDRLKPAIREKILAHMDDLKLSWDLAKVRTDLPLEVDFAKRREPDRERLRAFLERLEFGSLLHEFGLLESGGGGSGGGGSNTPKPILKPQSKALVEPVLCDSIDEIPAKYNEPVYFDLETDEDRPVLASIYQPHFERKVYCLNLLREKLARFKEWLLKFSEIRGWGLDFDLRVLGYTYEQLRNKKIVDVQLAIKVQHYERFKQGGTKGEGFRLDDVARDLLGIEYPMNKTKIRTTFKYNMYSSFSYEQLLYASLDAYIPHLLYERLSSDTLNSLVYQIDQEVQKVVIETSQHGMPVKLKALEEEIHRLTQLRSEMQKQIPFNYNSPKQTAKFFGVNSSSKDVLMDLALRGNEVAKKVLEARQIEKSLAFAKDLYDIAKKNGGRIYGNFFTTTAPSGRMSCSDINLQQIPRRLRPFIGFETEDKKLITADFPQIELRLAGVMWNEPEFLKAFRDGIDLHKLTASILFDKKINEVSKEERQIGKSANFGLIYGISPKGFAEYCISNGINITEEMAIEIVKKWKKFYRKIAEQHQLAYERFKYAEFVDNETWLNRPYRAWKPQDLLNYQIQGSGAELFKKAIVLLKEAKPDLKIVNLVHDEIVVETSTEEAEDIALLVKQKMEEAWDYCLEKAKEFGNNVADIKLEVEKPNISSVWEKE
M402 (synthetic (M160-nuc with G46D and 3'-5' exo reactivated)), sequence (chain, as listed by the source G46D): as the sequence (chain, as listed by the source A339E) above, with G46D counted along it
M403 (synthetic (M160-nuc, both nucleases inactive)), sequence (chain, as listed by the source): as the sequence (chain, as listed by the source A339E) above, with G46D, E339A counted along it
M502 (synthetic (M160-nuc mutant W777C D781A D622N Q627N)), sequence (chain, as listed by the source W777C D781A D622N Q627N): as the sequence (chain, as listed by the source A339E) above, with E339A, D622N, Q627N, W777C, D781A counted along it

Turning to 59-mer single-stranded oligonucleotide, the relative enzyme activity (relative ssExo activity) was 0.89 in data set [1] and 0.76 in [2].
Turning to poly(A)/oligo(dT)20, the relative enzyme activity (relative RT activity) in data set [3] (setting [10]) is 0.98; in [4] (setting [10]), 1.03; in data set [5] (setting [10]) it was 1.02; in data set [6] (50 C), 1.
primed M13mp18 DNA: the relative enzyme activity (relative pol activity) in data set [3] (setting [11]) came out at 1.05; in [4] (setting [11]), 0.72; in [5] (setting [11]), 0.91; in data set [6] (setting [11]), 1.
As usually defined, the Kd is the concentration at which binding is half-saturated. High values mean a looser complex, low ones a tighter complex. “primed-template DNA (Yamagami et al. 2014)”: the Kd in data set [7] was 946 nM; in [8], < 6.1 nM; in [9], 78.9 nM.

The values are drawn from patent publication US20210171580.
